In patent US20020032166A1, “Biocompatible cationic detergents and uses therefor” (University Technology Corporation, priority 1992, published 2002):
Values joined by “and” are separate entries in the source; they are usually repeats but may differ in a detail not shown here. Equal values may be shown once. Read-outs that look alike come from different tables or passages of the source.

Columns and labels:
[1] = Partitioning of anionic compounds with arginine esters; format: physicochemical
Procedure: Stock solutions of the arginine esters were made by first dissolving the powder in 0.1 N HCl to give a 10 mM solution and then raising the pH to a value between 5 and 6. The pH should not be raised above 8.
Anionic compounds were dissolved in pH 5.5 buffer (10 mM bis-tris propane, 10 mM CaCl2, 10 mM KCl). Appropriate amounts of the stock solution of arginine ester (see above), the anionic compound and buffer were mixed so that the final concentration of the anionic material was 1 mg/mL. An equal volume of organic solvent was added, and the samples were vortexed for 15 seconds on high speed. Layers were separated by centrifugation at 4000 rpm for 5 minutes. Concentrations of the anionic material in the aqueous and organic layers were determined by UV spectroscopy on a Beckman DU-64 series spectrophotometer.

[2] = Apparent water/1-octanol partition coefficient of SDS hydrophobic ion pair complexes
Text: The relative solubilities in two phases is given in terms of an apparent partition coefficient. The apparent partition coefficient is defined as the ratio of the equilibrium concentration in an organic phase to that in an aqueous phase. The actual value of the apparent partition coefficient, P, is dependent on the two solvent systems employed. In all cases herein described, the organic phase is 1-octanol and the aqueous phase is water alone or with a minimal amount of HCl added.
(§3) Apparent partition coefficients were measured by dissolving a peptide in 1.25 ml of an aqueous solution. Before SDS addition, the pH was measured on a Beckman pH meter. Upon addition of an SDS solution, the solutions turned cloudy and a precipitate formed immediately. An equal volume of 1-octanol was added and the mixtures agitated, and then left undisturbed for several hours. Prior to analysis, the tubes were spun for 10 minutes at 4000 g. Each layer was removed and the absorbance measured on a Beckman DU-64 UV-visible spectrophotometer using 1 cm quartz cells. All apparent partition coefficients were corrected for changes in pH with differing SDS concentrations.
Results are described as logarithms of the apparent partition coefficient. A log P value of 0 means that the compound is equally soluble in water and the organic phase.

[3] = Surface tension, critical micelle concentration; format: physicochemical; conditions: in 0.1 N HCl
Procedure: Surface tension was measured using a Fisher surface tensiometer. Briefly, a platinum iridium ring with a diameter of 6 cm was lowered into the appropriate dilution of detergent in 0.1 N HCl. Surface tension was read at the point where the force on the ring upwards caused the ring to break contact with the liquid surface.

[4] = Solubility of arginine octyl ester powder; format: physicochemical
[5] = Thermal denaturation / melting point followed at 222 nm (CD, absorbance); format: physicochemical
Procedure: Both circular dichroism (CD) signal and light scattering (as measured by changes in absorbance) were measured at 222 nm and the melting point determined by an inflection point in the measured scan.

[6] = SDS-insulin complex
Procedure: as §3

[7] = aqueous solution; cited from earlier work
[8] = Apparent solubility of HIP complexes in organic solvents
CCRF-CEM cells = assay: Cytotoxicity, MTS cell proliferation assay; format: cell-based, human; conditions: for IC50: Homo sapiens, 2-6 h exposure, 72 h growth, read-out: IC50 (half-maximal growth inhibition)
Text: (§1) The cytotoxicity of arginine dodecyl ester was investigated in cell culture with two types of cells (see Cory et al., Cancer Commun., 3, 207-212 (1991)): CCRF-CEM cells, a human T-cell leukemia cell line that grows in suspension (obtained from the American Type Culture Collection, ATCC); and a green monkey kidney cell line (COS-7) that grows in monolayers (also obtained from ATCC). For comparison, the cells were also exposed to […] bromide (DTAB) (Sigma).
(§2) Cells were plated into 96-well plates (Corning) in a total of 200 μL Dulbecco's modified minimal essential medium for COS-7 cells, RPMI 1640 for CEM cells, supplemented with penicillin G (50 U/ml), streptomycin sulfate (50 μg/ml), and 10% fetal calf serum, at 10,000 cells/well for COS-7 amd 50,000 cells/well for CEM cells. The plates were incubated at 37° C. for 24 hours after plating. The cells were then exposed to various concentrations of the detergents. Each detergent concentration was used in 8 replicate wells. After 2-6 hours, media/detergent solutions were aspirated, and the wells were washed twice with PBS. For CEM suspension cells, centrifugation of the suspension at 1000×g for 5 min between each wash was required. After washing, 200 μL of fresh medium were added, and the cells were incubated for 72 hours. After 72 hours, cell proliferation was determined using the Promega CellTiter 96 AQueous Non-Radioactive Cell Proliferation Assay.

COS-7 cells [9] = assay: Cytotoxicity, MTS cell proliferation assay; format: cell-based, green monkey; conditions: for IC50: Chlorocebus sabaeus, 2-6 h exposure, 72 h growth, read-out: IC50 (half-maximal growth inhibition)
Text: as §1, §2
CC-CHOL was tested for cytotoxicity as described in Example 38 using COS-7 and JEG-3 cells. JEG-3 cells are a human choriocarcinoma cell line available from ATCC. The culture medium was Eagle's minimum essential medium containing 10% serum.

COS-7 cells [10] = assay: Transfection of pRSV400luc plasmid, luciferase activity; format: cell-based, green monkey; conditions: no liposomes or helper lipids
Text: The plasmid used was pRSV400luc. It was obtained from Dr. David Gordon, Div. Endocrinology, University of Colorado School of Medicine, Denver, Colo. It was propagated in Escherichia coli strain DH5a (ATCC), isolated by a standard alkaline-SDS lysis procedure, and purified twice by isopycnic centrifugation on CsCl gradients (Sambrook et al., Molecular Cloning: A Laboratory Manual (Cold Spring Harbor Laboratory) (1989). COS-7 cells at approximately 50,000 cells per 60 mm diameter plate (Falcon) were used for transfection. Control experiments were done with Lipofectamine (GIBCO/Life Technologies, Gaithersburg, Md.).
In 200 total μL of serum-free medium, plasmid (20 μg) and Lipofectamine or arginine dodecyl ester were mixed and allowed to interact for 45 minutes. The volume was then brought to 1 mL with serum-free medium. Plates with cells were washed with serum-free medium. […]
After allowing cells to grow and express gene product for 36-50 hours, the cells were harvested. […] Intensity of luminescence should be proportional to the amount of expressed luciferase and, therefore, the efficiency of transfection. “Background” is the reading from just the substrate mixture on the luminometer before addition of cell lysate. […] Any reading over 100 units is considered significant.

Work on `Nc1ncnc2c1ncn2[C@@H]1O[C@H](COP(=O)(O)OP(=O)(O)OP(=O)(O)O)[C@@H](O)[C@H]1O` [adenosine triphosphate] yielded a log p ([1]; octanol/pH 5.5 buffer, pH 5.5, ester C12, detergent:anionic compound 1:1, solvent octanol, read-out: log p) of -1.48, a log p ([1]; octanol/pH 5.5 buffer, pH 5.5, ester C12, detergent:anionic compound 3:1, solvent octanol, read-out: log p) of 0.022 and a log p ([1]; octanol/pH 5.5 buffer, pH 5.5, ester none, solvent octanol, pH 5.5 buffer, read-out: log p) of -3.23.
With Gly-Phe the “partitioning into 1-octanol with SDS” value ([2]; pH 3) was “mirrors the marked increase seen for Gly-Phe-NH2” and the “partitioning into 1-octanol with SDS” value ([2]; pH 7 / neutral pH) was “little enhancement of the partition coefficient”.
In the case of `CCCCCCCCOC(=O)[C@@H](N)CCCNC(=N)N` [arginine octyl ester], the “critical micelle concentration (cmc)” value [3] is reported as “about 6 mM and ~2.2 mg/ml”, the “solubility in HCl” value ([4]; HCl) is reported as “would only dissolve in 0.1 N or stronger HCl” and the “solubility in organics” value ([4]; alcohols, hydrocarbons, aromatics, DMF, pyridine) is reported as “insoluble”. For the same compound, the “solubility in water” value ([4]; water) was “insoluble”.
In the case of “hGH: human growth hormone; precipitate with SDS at pH 2”, the “solubility in 1-octanol” value (pH 2) is reported as “not found to be soluble” and the “aqueous solubility on addition of SDS” value (pH 7.8) is reported as “not affected”.
For “insulin-SDS complex: hydrophobic ion pair complex of insulin with sodium dodecyl sulfate”, the “structure after prolonged heating” value ([5]; 1-octanol, 70° C. for more than 1 hour) was “appears to maintain its native structure”, the “melting point in 1-octanol” value ([5]; SDS:insulin molar ratio 6:1, 200 ug/ml) was “about 116 °C” and the “melting point in 1-octanol, CD scan at 222 nm” value ([5]; SDS:insulin molar ratio 9:1 (FIG. 10)) was 106 °C. For the same compound, the “melting point in 1-octanol, absorbance scan at 222 nm” value ([5]; SDS:insulin molar ratio 9:1 (FIG. 11)) was 106 °C.
`Cc1ccc(S(=O)(=O)[O-])cc1.[Na+]` [p-toluenesulfonic acid, sodium salt] gave a log p ([1]; ester C8 (arginine octyl ester), solvent octanol, pH 5.5 buffer) of -0.353, a log p ([1]; ester C8, solvent isooctane, pH 5.5 buffer) of -2.2 and a log p ([1]; ester C12 (arginine dodecyl ester), solvent octanol, pH 5.5 buffer) of -0.336. The log p ([1]; ester none, solvent isooctane, pH 5.5 buffer) was -2.7 and the log p ([1]; ester none, solvent octanol, pH 5.5 buffer) was -1.62.
For “insulin: insulin, a hydrophilic protein; in Table 1 and in 1-octanol present as SDS complex”, the “Tm in 1-octanol above that observed in water” value ([5]; 1-octanol vs water) was “more than 30 degrees”, the “Log P” value ([6]; organic solvent 1-Chlorooctane) was “not detectable” and the “Log P” value ([6]; organic solvent 1-octanol) was “≧ 1.2”. For the same compound, the “Log P” value ([6]; organic solvent CCl4) was “not detectable”, the “Log P” value ([6]; organic solvent CH2Cl2) was “not detectable” and the “Log P” value ([6]; organic solvent Dimethoxyethane) was “not detectable”. For the same compound, the “Log P” value ([6]; organic solvent Ether) was “not detectable”, the “Log P” value ([6]; organic solvent Hexane) was “not detectable” and the “Log P” value ([6]; organic solvent Mineral Oil) was “not detectable”. The “Tm of thermal denaturation” value [7] was “about 65 °C”, the “Apparent Sol.” value ([8]; SDS-insulin complex in 1-Chlorooctane) was “insoluble” and the “Apparent Sol.” value ([8]; SDS-insulin complex in 1-octanol) was “≧ 1.0 mg/ml”. For the same compound, the “Apparent Sol.” value ([8]; SDS-insulin complex in CCl4) was “insoluble”, the “Apparent Sol.” value ([8]; SDS-insulin complex in CH2Cl2) was “insoluble” and the “Apparent Sol.” value ([8]; SDS-insulin complex in DMF) was “≧ 1.0 mg/ml”. For the same compound, the “Apparent Sol.” value ([8]; SDS-insulin complex in Ethanol) was “≧ 1.0 mg/ml”, the “Apparent Sol.” value ([8]; SDS-insulin complex in Ether) was “insoluble” and the “Apparent Sol.” value ([8]; SDS-insulin complex in Ethyl acetate) was “insoluble”. For the same compound, the “Apparent Sol.” value ([8]; SDS-insulin complex in Hexane) was “insoluble”, the “Apparent Sol.” value ([8]; SDS-insulin complex in Methanol) was “≧ 1.0 mg/ml” and the “Apparent Sol.” value ([8]; SDS-insulin complex in Mineral Oil) was “insoluble”. For the same compound, the “Apparent Sol.” value ([8]; SDS-insulin complex in NMP) was “≧ 1.0 mg/ml”, the “Apparent Sol.” value ([8]; SDS-insulin complex in PEG 400) was “≧ 0.2 mg/ml” and the “Apparent Sol.” value ([8]; SDS-insulin complex in Propylene Glycol) was “≧ 0.5 mg/ml”. For the same compound, the “Apparent Sol.” value ([8]; SDS-insulin complex in TMP) was “≧ 0.2 mg/ml”, the “Apparent Sol.” value ([8]; SDS-insulin complex in Trifluoroethanol) was “≧ 0.5 mg/ml” and the “Apparent Sol.” value ([8]; SDS-insulin complex in Trimethyl phosphate) was “≧ 0.15 mg/ml”. For the same compound, the “Apparent Sol.” value ([8]; SDS-insulin complex in i-Propanol) was “≧ 1.0 mg/ml”.
In the case of `CCCCCCCCCCCCOC(=O)[C@@H](N)CCCNC(=N)N` [arginine dodecyl ester], the “critical micelle concentration (cmc)” value [3] is reported as “approximately 0.3 mM and ~0.10 mg/ml”, the “toxicity relative to DTAB” value (CCRF-CEM cells) is reported as “seven-fold less toxicity” and the IC50 (CCRF-CEM cells) is reported as 150 µM. For the same compound, the “toxicity relative to DTAB” value (COS-7 cells [9]) was “approximately two-fold less toxicity”, the IC50 (COS-7 cells [9]) was 175 µM and the “transfection of plasmid” value (COS-7 cells [10]) was “promoted transection of the plasmid in a concentration and time dependent manner”.
In the case of “bovine serum albumin: bovine serum albumin, anionic test protein”, the “partitioning into octanol layer” value ([1]; arginine dodecyl ester added, octanol) is reported as “none would partition into octanol layer”.
In the case of `NC(=O)CC[C@@H]1NC(=O)[C@H](Cc2ccccc2)NC(=O)[C@H](Cc2ccc(O)cc2)NC(=O)[C@@H](N)CSSC[C@@H](C(=O)N2CCC[C@H]2C(=O)N[C@@H](CCCN=C(N)N)C(=O)NCC(N)=O)NC(=O)[C@H](CC(N)=O)NC1=O` [AVP, 8-Arg-vasopressin], the “increase of apparent partition coefficient on SDS addition” value ([2]; 1-octanol/water, stoichiometric SDS) is reported as “nearly four orders of magnitude”.
In the case of Gly-Phe-NH2, the “partitioning into 1-octanol with SDS” value ([2]; pH 7 / neutral pH) is reported as “readily partitions into 1-octanol”.
For `CCCCCCCCCCCCCC[N+](C)(C)C` [DTAB, tetradecyltrimethylammonium bromide, reference compound], the IC50 (CCRF-CEM cells) was 20 µM and the IC50 (COS-7 cells [9]) was 80 µM.
